Results on four molecules are retold here after patent publication US20240148878A1, “THERAPEUTIC POLY-ADP-RIBOSE POLYMER-GCSF CONJUGATES” (UNIVERSITY OF SOUTHERN CALIFORNIA, priority 2022, published 2024).

Assay [1] has as its target T1, GCSF receptor on mouse NFS-60 cells (mouse (NFS-60 cells)) (UniProt P40223).
T1 sequence (looked up): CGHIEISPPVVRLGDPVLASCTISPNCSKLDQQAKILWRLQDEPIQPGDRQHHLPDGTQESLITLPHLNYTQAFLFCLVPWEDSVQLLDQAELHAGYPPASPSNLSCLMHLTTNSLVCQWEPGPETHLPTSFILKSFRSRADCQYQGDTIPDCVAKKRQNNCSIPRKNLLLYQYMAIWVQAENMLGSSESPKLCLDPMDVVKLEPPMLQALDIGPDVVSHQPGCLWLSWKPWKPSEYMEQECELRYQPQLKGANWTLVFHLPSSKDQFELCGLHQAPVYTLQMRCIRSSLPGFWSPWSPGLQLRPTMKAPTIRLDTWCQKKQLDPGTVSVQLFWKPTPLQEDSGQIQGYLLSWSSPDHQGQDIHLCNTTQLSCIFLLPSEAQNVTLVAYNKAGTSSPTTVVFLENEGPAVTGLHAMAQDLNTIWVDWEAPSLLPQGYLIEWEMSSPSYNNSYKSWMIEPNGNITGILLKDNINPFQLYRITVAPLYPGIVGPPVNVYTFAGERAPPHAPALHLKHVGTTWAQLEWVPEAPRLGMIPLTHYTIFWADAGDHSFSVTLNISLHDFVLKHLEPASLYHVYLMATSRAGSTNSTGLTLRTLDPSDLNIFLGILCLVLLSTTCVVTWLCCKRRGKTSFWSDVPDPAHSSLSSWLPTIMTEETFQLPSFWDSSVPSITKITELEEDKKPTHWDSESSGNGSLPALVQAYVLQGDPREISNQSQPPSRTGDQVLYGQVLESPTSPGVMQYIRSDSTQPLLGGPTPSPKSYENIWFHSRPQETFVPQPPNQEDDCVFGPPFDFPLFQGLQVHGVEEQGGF
The experiment in a line: cell-based or functional assay.

Assay [2] deals with anti-GCSF monoclonal antibody (clone: BVD13-3A5, BioLegend). The experiment in a line: sandwich ELISA, BVD13-3A5 coated, detection anti-GCSF 3D1-HRP; analyte 31.25 ng/mL, replicate #1. A general note: An ELISA detects its analyte on a solid surface through an enzyme-linked reagent.
Assay [3] has the same target. The experiment in a line: sandwich ELISA, BVD13-3A5 coated, detection anti-GCSF 3D1-HRP; analyte 250 ng/mL, replicate #1.
Assay [4] has the same target. The experiment in a line: sandwich ELISA, BVD13-3A5 coated, detection anti-GCSF 3D1-HRP; analyte 500 ng/mL, replicate #1.
Assay [5] shares this target. The experiment in a line: sandwich ELISA, BVD13-3A5 coated, detection anti-GCSF 3D1-HRP; analyte 250 ng/mL, replicate #2.
The target is the same in assay [6]. The experiment in a line: sandwich ELISA, BVD13-3A5 coated, detection anti-GCSF 3D1-HRP; analyte 62.5 ng/mL, replicate #2.
Assay [7] shares this target. In words: sandwich ELISA, BVD13-3A5 coated, detection anti-GCSF 3D1-HRP; analyte 125 ng/mL, replicate #1.
Assay [8] shares this target. In words: sandwich ELISA, BVD13-3A5 coated, detection anti-GCSF 3D1-HRP; analyte 500 ng/mL, replicate #2.
Assay [9] shares this target. The experiment in a line: sandwich ELISA, BVD13-3A5 coated, detection anti-GCSF 3D1-HRP; analyte 125 ng/mL, replicate #2.
The target is the same in assay [10]. In words: sandwich ELISA, BVD13-3A5 coated, detection anti-GCSF 3D1-HRP; analyte 62.5 ng/mL, replicate #1.
The target is the same in assay [11]. The experiment in a line: sandwich ELISA, BVD13-3A5 coated, detection anti-GCSF 3D1-HRP; analyte 31.25 ng/mL, replicate #2.
Another assay concerns mouse NFS-60 cells. The experiment in a line: In vitro proliferation assay (MTT). Format: cell-based. The settings on record: for EC50: NFS-60 cells, 72 hours, MTT, read-out: EC50 of stimulatory (proliferative) activity. As for the experimental part:
FIG. 3 illustrates the PARylated PARP1-GCSF conjugate stimulates proliferation of mouse NFS-60 cells in a dose-dependent manner. Cells were treated with various concentrations of PARylated PARP1, PARylated PARP1-GCSF conjugate, and human GCSF for 72 hours. Cell viabilities were quantified using MTT assays.
Cell lines. Mouse NFS-60 cells were grown in RPMI 1640 medium containing 10% FBS, 0.05 mM 2-mercaptoethanol and 62 ng/mL human recombinant macrophage colony stimulating factor (M-CSF). Expi293F cells were purchased from Thermo Fisher Scientific and cultured in Expi293F expression medium with shaking at a speed of 125 rpm at 37° C. and 8% CO2.
In vitro proliferation assays. Mouse NFS-60 cells were cultured in RPMI 1640 medium containing 10% FBS, 0.05 mM 2-mercapoethanol and 62 ng/ml human recombinant M-CSF. To examine the proliferative activity of PARylated PARP1-GCSF conjugate, cells were washed three times with DPBS buffer, resuspended in RPMI-1640 medium with 10% FBS and 0.05 mM 2-mercapoethanol, plated in 96-well plates (1.5×10^4 cells per well) with various concentrations of GCSF, PARylated PARP1, or PARylated PARP1-hG-CSF conjugate, and incubated for 72 hours at 37° C. with 5% CO2. Cells were then treated with 0.5 mg mL^−1 3-(4,5-dimethylthiazol-2-yl)-2,5-diphenyltetrazolium bromide (MTT) solution for 3 hours at 37° C., followed by additions of 100 μL of lysis buffer (20% SDS in 50% dimethylformamide, 0.5% (v:v) 80% acetic acid, 0.4% (v:v) 1 N HCl, pH 4.7) and incubated for 4 hours at 37° C. Fluorescence intensity measured at 595 nm is proportional to cell viability.

Assay [12] has as its system neutrophil populations in blood. The experiment in a line: In vivo efficacy: neutrophil populations in blood by flow cytometry after single s.c. dose. Also noted: species or system CD1 mice. Conditions: for neutrophil percentage reached after sharp increase: within 24 hours, from approximately 10%. An excerpt: FIG. 4A-C illustrates in vivo efficacy of the PARylated PARP1-GCSF conjugate. Single doses of GCSF (1.25 nmol), PARylated PARP1 (2.5 nmol) and PARylated PARP1-GCSF conjugate (0.5 or 2.5 nmol) were administrated by subcutaneous (s.c.) injections into CD1 mice (five per group). Blood was collected and analyzed for neutrophil populations by flow cytometry using fluorophore-labeled anti-mouse CD45, anti-mouse CD11b, and anti-mouse Ly-6G antibodies. (A)-(B) Neutrophil percentages in mouse blood after the single-dose treatments. For (B), 1=PBS; 2=GCSF 1.25 nmol; 3=PARylated PARP1 2.5 nmol; 4=PARylated PARP1-GCSF 0.5 nmol; 5=PARylated PARP1-GCSF 2.5 nmol. (C) Representative flow cytometric analyses of mouse neutrophil populations after treatments with 1) PBS; 2) GCSF 1.25 nmol; 3) PARylated PARP1 2.5 nmol; 4) PARylated PARP1-GCSF 0.5 nmol; and 5) PARylated PARP1-GCSF 2.5 nmol conjugate. ns=not significant, p>0.05; *, p<0.05; **, p<0.01; ***, p<0.001; ****, p<0.0001. Data for the 5 conjugates are listed for days 0, 1, 5, and 11.
Animals. Female CD-1 IGS mice (22-24 g) were purchased from Charles River Laboratories (Wilmington, MA). All animal studies were performed under a protocol approved by the Institutional Animal Care and Use Committee of the University of Southern California.
In vivo efficacy of the PARylated PARP1-GCSF conjugate. Single doses of GCSF (1.25 nmol), PARylated PARP1 (2.5 nmol), or PARylated PARP1-GCSF conjugate (0.5 or 2.5 nmol) were administrated by subcutaneous (s.c.) injections into CD1 mice (5 per group). Blood was collected at day 0 through day 13 and analyzed by flow cytometry to measure percentages of neutrophil populations in white blood cells using pacific blue anti-mouse CD45 (clone: 30-F11, BioLegend), APC anti-mouse CD11b (clone: M1/70, eBioscence, Carlsbad, CA), and FITC anti-mouse Ly-6G antibodies (clone: 1A8, BioLegend).
(In general: Flow cytometry measures light scatter and fluorescence of single cells or particles in a stream.)

On to “PARylated PARP1-GCSF conjugate (from UniProt P09874 1-1014)”, for which, in [1], the EC50, proliferation of mouse NFS-60 cells (MTT, 72 hours) came out at 0.00602 nM. In assay [1], the fold potency against free GCSF, proliferation of mouse NFS-60 cells stood at 4 fold. Besides, the Fluorescence Intensity turned out to be 15900 in assay [2]; 49400 in [3]; 64500 in assay [4]; 49200 in assay [5]; 20700 in assay [6]; 32100 in [7]. The Fluorescence Intensity in assay [8] was 64900; in assay [9] it was 44700; in [10], 22800; in assay [11] it was 15900.
Usually EC50 stands for the concentration giving half of the maximal effect. On to “PARylated PARP1-GCSF conjugate: Auto-PARylated human PARP1 (3′-azido NAD+-derived PAR polymers) click-conjugated with alkyne-functionalized human GCSF, 14.0±0.5 GCSF molecules on average”, for which the EC50 with mouse NFS-60 cells turned out to be 0.00602 ± 0.00093 nM. The “fold increased potency versus recombinant human GCSF” value with mouse NFS-60 cells (ratio of EC50, NFS-60 cells) is given as “approximately 4 fold”. For the same molecule, the “duration of sustained elevated levels of neutrophil” value in assay [12] (conjugate 2.5 nmol) is 11 days. Besides, the “neutrophil-stimulating activity compared with 1.25 nmol GCSF” value in [12] (conjugate at a dose of 0.5 nmol) is “comparable”. Moreover, in assay [12], the “neutrophil percentage reached after sharp increase” value was ~50%.
In assay [1], “Recombinant human granulocyte colony-stimulating factor (GCSF) with His6 tag, expressed in Expi293F cells (from UniProt P09919 31-207) (ligand)” returned an EC50, proliferation of mouse NFS-60 cells (MTT, 72 hours) of 0.0248 nM. Moreover, the Fluorescence Intensity in assay [2] was found to be 19900; in assay [3], 62200; in assay [4], 75700; in [5], 60700; in assay [6] it was 29800; in [7], 42300. The Fluorescence Intensity in [8] was determined as 76500; in assay [9] it was 42700; in [10], 29400; in assay [11], 20700.

B1: GCSF: Recombinant human granulocyte colony-stimulating factor (His6) expressed in Expi293F cells (protein)
chain: TPLGPASSLPQSFLLKCLEQVRKIQGDGAALQEKLVSECATYKLCHPEELVLLGHSLGIPWAPLSSCPSQALQLAGCLSQLHSGLFLYQGLLQALEGISPELGPTLDTLQLDVADFATTIWQQMEELGMAPALQPTQGAMPAFASAFQRRAGGVLVASHLQSFLEVSYRVLRHLAQPHHHHHH
Consider B1, for which, in the assay with mouse NFS-60 cells, the 50% effective concentration (EC50) was 0.0248 ± 0.00321 nM. Moreover, the “neutrophil percentage reached after sharp increase” value in assay [12] is given as ~50%.
